Results from publication PMC7152798.

Tests used:
[1] = biological target: GST-FMRP C-terminus deleted from the last 89 amino acids which includes the RGG motif (mouse); assay: pull-down; GST-fusion proteins made in yeast, immobilised on glutathione sepharose 4B beads and incubated at 4 °C with lysate of tsA-201 cells transfected with CaV2.2/α2δ-1/β1b; washed four times with ice-cold 1% Triton-PBS; blots with CaV2.2 II-III loop Ab and GST Ab; bands quantified as a percentage of CT
[2] = biological target: GST-FMRP C-terminus deleted from the last 63 amino acids (mouse); assay: as above

Chain of calcium channel CaV2.2 (Q05152 whole entry): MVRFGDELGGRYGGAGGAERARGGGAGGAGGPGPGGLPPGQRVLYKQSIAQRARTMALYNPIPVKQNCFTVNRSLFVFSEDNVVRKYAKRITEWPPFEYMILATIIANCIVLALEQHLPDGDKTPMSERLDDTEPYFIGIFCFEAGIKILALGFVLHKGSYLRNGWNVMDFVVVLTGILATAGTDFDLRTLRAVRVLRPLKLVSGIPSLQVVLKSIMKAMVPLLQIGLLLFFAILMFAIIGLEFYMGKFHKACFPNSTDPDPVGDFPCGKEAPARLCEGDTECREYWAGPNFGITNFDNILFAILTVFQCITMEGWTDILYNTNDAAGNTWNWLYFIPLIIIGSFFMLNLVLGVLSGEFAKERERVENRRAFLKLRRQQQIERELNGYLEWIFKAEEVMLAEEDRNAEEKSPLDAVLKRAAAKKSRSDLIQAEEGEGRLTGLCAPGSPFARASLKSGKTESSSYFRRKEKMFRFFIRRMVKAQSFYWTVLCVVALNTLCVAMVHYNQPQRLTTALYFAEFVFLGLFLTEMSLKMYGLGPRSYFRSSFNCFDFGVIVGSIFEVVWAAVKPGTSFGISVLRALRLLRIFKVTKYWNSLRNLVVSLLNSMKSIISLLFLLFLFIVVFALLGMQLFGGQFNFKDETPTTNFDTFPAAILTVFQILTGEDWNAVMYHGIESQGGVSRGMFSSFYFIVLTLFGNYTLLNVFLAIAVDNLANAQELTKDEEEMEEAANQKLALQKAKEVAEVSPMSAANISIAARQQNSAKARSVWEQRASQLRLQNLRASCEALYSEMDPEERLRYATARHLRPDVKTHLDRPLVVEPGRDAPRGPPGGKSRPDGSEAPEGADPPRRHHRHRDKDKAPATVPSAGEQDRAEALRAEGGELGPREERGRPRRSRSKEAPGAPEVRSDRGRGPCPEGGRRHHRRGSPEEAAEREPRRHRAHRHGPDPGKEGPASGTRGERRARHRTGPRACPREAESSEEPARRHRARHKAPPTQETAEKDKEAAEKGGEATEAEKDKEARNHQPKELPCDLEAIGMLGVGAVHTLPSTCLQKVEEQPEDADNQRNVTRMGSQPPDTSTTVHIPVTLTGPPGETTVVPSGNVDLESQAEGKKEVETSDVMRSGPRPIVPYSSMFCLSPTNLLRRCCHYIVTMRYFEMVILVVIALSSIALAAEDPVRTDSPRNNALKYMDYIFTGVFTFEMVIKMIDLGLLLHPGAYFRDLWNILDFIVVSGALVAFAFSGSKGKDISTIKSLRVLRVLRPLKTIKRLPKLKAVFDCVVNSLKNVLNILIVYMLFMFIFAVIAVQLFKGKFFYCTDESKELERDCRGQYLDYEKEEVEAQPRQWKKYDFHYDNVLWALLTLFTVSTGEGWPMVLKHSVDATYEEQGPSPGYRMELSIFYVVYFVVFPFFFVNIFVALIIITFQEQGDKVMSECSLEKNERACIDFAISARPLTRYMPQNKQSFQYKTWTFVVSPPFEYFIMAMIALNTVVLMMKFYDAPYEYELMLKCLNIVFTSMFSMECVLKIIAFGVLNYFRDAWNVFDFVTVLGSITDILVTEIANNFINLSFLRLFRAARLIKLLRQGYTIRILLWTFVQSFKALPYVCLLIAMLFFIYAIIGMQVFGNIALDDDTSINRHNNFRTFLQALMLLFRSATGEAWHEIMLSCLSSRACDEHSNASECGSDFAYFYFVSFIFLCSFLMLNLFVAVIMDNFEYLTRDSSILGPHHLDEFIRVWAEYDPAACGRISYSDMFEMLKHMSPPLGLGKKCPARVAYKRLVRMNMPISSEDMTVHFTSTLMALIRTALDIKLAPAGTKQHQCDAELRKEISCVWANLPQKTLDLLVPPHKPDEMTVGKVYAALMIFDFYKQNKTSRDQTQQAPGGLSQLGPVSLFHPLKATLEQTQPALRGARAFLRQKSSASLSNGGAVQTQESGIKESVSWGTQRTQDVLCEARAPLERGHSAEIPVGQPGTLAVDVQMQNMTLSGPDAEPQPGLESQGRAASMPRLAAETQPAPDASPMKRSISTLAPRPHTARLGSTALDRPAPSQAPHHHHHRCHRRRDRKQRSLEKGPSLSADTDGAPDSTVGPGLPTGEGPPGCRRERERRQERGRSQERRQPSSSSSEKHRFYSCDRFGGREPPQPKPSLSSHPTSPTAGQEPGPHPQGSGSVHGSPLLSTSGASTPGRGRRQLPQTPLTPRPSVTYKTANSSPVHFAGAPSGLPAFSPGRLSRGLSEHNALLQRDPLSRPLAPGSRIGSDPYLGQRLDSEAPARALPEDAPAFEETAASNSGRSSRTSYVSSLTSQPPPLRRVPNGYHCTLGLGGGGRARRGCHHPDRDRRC

reduction of the binding relative to CT [1]: 79.5%
reduction of the binding relative to CT [2]: 61.7%
Substance: calcium channel CaV2.2 (from UniProt Q05152 1-2339) (natural protein)
